Laboratory results as given in patent US20200216495A1 (ADRX, published 2020).
Several values for one entry are separate records, joined by “and”; a condition that tells them apart may be missing. Equal values may be shown once. Square brackets hold non-standard residues; d marks the D form. Ends that are not written are not given here. dCit = NC(=O)NCCC[C@@H](N)C(=O)O; dNle = CCCC[C@@H](N)C(=O)O

biological target: Tau40 P301L protein (human); assay: cell-based or functional assay

Row | IC50, Tau40 assay (ThT) | Binder
1 | 2580 nM | [dW][dE][dL][dR][dI][dH][dW] [welrihw (PEPTIDE ID NO: 322)]
2 | 780 nM | [dK][dW][dR][dL][dK][dV][dR][dW] [kwrlkvrw (PEPTIDE ID NO: 207)]
3 | 820 nM | [dW][dR][dF][dK][dF][dR][dW] [wrfkfrw (PEPTIDE ID NO: 215)]
4 | 2130 nM | [dL][dR][dV][dQ][dV][dR][dL] [lrvqvrl (PEPTIDE ID NO: 441)]
5 | 2170 nM | [dY][dH][dL][dK][dL][dH][dY][dW] [yhlklhyw (PEPTIDE ID NO: 440)]
6 | 2590 nM | [dF][dE][dI][dR][dI][dH][dY][dH] [feirihyh (PEPTIDE ID NO: 442)]
7 | 810 nM | [dL][dK][dI][dW][dI][dK][dY][dH] [lkiwikyh (PEPTIDE ID NO: 212)]
8 | 820 nM | [dH][dR][dL][dK][dV][dR][dW][dH] [hrlkvrwh (PEPTIDE ID NO: 213)]
9 | 2690 nM | [dH][dW][dR][dW][dR][dW][dR] [hwrwrwr (PEPTIDE ID NO: 326)]
10 | 790 nM | G[dW][dR][dL][dK][dV][dR][dW] (also: all residues D-form, Gly1 is achiral) [gwrlkvrw (PEPTIDE ID NO: 209)]
11 | 2340 nM | [dF][dE][dL][dH][dI][dK][dW][dH] [felhikwh (PEPTIDE ID NO: 134)]
12 | 830 nM | [dF][dK][dL][dK][dL][dR][dW][dF] [fklklrwf (PEPTIDE ID NO: 57)]
13 | 2300 nM | [dW][dR][dL][dK][dV][dE][dW][dW] [wrlkveww (PEPTIDE ID NO: 313)]
14 | 2450 nM | [dL][dK][dI][dR][dI][dH][dE][dH] [lkiriheh (PEPTIDE ID NO: 318)]
15 | 880 nM | [dW][dR][dF][dK][dV][dR][dW] [wrfkvrw (PEPTIDE ID NO: 226)]
16 | 2280 nM | [dA][dR][dL][dR][dI][dH][dW] [arlrihw (PEPTIDE ID NO: 312)]
17 | 750 nM | [dT][dW][dR][dL][dK][dV][dR][dW] [twrlkvrw (PEPTIDE ID NO: 205)]
18 | 2560 nM | [dW][dK][dL][dK][dL][dR][dW][dW] [wklklrww (PEPTIDE ID NO: 13)]
19 | 2670 nM | [dW][dK][dL][dW][dL][dR][dW][dW] [wklwlrww (PEPTIDE ID NO: 12)]
20 | 860 nM | [dW][dR][dL][dK][dV][dR][dW][dH] [wrlkvrwh (PEPTIDE ID NO: 222)]
21 | 2630 nM | [dL][dK][dI][dR][dI][dE][dY] [lkiriey (PEPTIDE ID NO: 324)]

Row | IC50, Tau40 assay (ThT) | Binder
22 | 2450 nM | [dL][dK][dI][dR][dI][dE][dH][dY] [lkiriehy (PEPTIDE ID NO: 155)]
23 | 2260 nM and 950 nM and 2390 nM and 820 nM | [dW][dK][dV][dQ][dV][dR][dL][dW] [wkvqvrlw (PEPTIDE ID NO: 2)]
24 | 310 nM and 320 nM | [dW][dR][dL][dR][dI][dH][dW] [wrlrihw (PEPTIDE ID NO: 101)]
25 | 2440 nM | [dL][dK][dI][dM][dI][dH][dY] [lkimihy (PEPTIDE ID NO: 317)]
26 | 870 nM | [dR][dL][dK][dV][dR][dW][dW][dW] [rlkvrwww (PEPTIDE ID NO: 224)]
27 | 850 nM | [dL][dR][dL][dK][dV][dR][dW][dW] [lrlkvrww (PEPTIDE ID NO: 221)]
28 | 2210 nM | [dL][dK][dL][dK][dI][dK][dH][dF] [lklkikhf (PEPTIDE ID NO: 154)]
29 | 2110 nM and 2410 nM | [dF][dE][dL][dR][dL][dH][dW][dH] [felrlhwh (PEPTIDE ID NO: 133)]
30 | 860 nM | [dL][dK][dI][dL][dI][dH][dY][dH] [lkilihyh (PEPTIDE ID NO: 223)]
31 | 790 nM | [dL][dK][dI][dR][dI][dL][dY][dH] [lkirilyh (PEPTIDE ID NO: 208)]
32 | 810 nM | [dL][dR][dL][dK][dV][dR][dW][dL] [lrlkvrwl (PEPTIDE ID NO: 210)]
33 | 820 nM | [dL][dK][dI][dR][dI][dF][dY][dH] [lkirifyh (PEPTIDE ID NO: 214)]
34 | 880 nM | [dR][dR][dL][dK][dV][dR][dW][dW] [rrlkvrww (PEPTIDE ID NO: 225)]
35 | 810 nM | [dL][dK][dI][dR][dF][dH][dY] [lkirfhy (PEPTIDE ID NO: 211)]
36 | 780 nM | [dL][dK][dI][dR][dI][dW][dY][dH] [lkiriwyh (PEPTIDE ID NO: 206)]
37 | 2470 nM | [dW][dQ][dL][dK][dV][dQ][dW] [wqlkvqw (PEPTIDE ID NO: 319)]
38 | 2190 nM | [dL][dA][dI][dR][dI][dH][dY][dH] [lairihyh (PEPTIDE ID NO: 309)]
39 | 2380 nM and 2610 nM | [dW][dR][dI][dW][dI][dR][dY][dW] [wriwiryw (PEPTIDE ID NO: 105)]
40 | 2360 nM | [dW][dR][dL][dR][dI][dT][dW] [wrlritw (PEPTIDE ID NO: 314)]
41 | 830 nM | [dL][dK][dF][dR][dI][dH][dY] [lkfrihy (PEPTIDE ID NO: 216)]
42 | 2070 nM | [dW][dR][dL][dN][dV][dR][dW] [wrlnvrw (PEPTIDE ID NO: 306)]

Row | IC50, Tau40 assay (ThT) | Binder
43 | 2230 nM | [dW][dR][dL][dW][dV][dR][dW][dW] [wrlwvrww (PEPTIDE ID NO: 310)]
44 | 2420 nM | [dL][dK][dL][dE][dI][dR][dW][dH] [lkleirwh (PEPTIDE ID NO: 429)]
45 | 2180 nM and 2210 nM | [dW][dL][dR][dV][dQ][dV][dK][dW] [wlrvqvkw (PEPTIDE ID NO: 111)]
46 | 2270 nM | [dR][dI][dR][dW][dY][dW][dK] [rirwywk (PEPTIDE ID NO: 311)]
47 | 2690 nM | [dR][dL][dR][dI][dH][dW][dF] [rlrihwf (PEPTIDE ID NO: 446)]
48 | 840 nM | [dW][dR][dL][dK][dV][dR][dW][dF] [wrlkvrwf (PEPTIDE ID NO: 218)]
49 | 850 nM | [dW][dR][dR][dK][dV][dR][dW][dW] [wrrkvrww (PEPTIDE ID NO: 220)]
50 | 2610 nM | [dW][dR][dL][dK][dV][dR][dA] [wrlkvra (PEPTIDE ID NO: 323)]
51 | 2490 nM | [dF][dR][dV][dK][dI][dQ][dH][dW] [frvkiqhw (PEPTIDE ID NO: 120)]
52 | 2430 nM | [dL][dE][dI][dR][dI][dH][dY] [leirihy (PEPTIDE ID NO: 316)]
53 | 840 nM | [dL][dK][dI][dR][dI][dM][dY] [lkirimy (PEPTIDE ID NO: 219)]
54 | 830 nM | [dR][dW][dR][dL][dK][dV][dR][dW] [rwrlkvrw (PEPTIDE ID NO: 217)]
55 | 2560 nM and 2570 nM | [dF][dR][dI][dK][dI][dR][dW] [frikirw (PEPTIDE ID NO: 61)]
56 | 2400 nM | [dW][dR][dL][dE][dV][dR][dW] [wrlevrw (PEPTIDE ID NO: 315)]
57 | 2650 nM | [dW][dR][dL][dA][dI][dH][dW] [wrlaihw (PEPTIDE ID NO: 325)]
58 | 2540 nM | [dL][dK][dI][dNle][dI][dH][dY] [lkiuihy (PEPTIDE ID NO: 321)]
59 | 2470 nM | [dL][dK][dI][dCit][dI][dH][dY] [lkizihy (PEPTIDE ID NO: 320)]
60 | 2520 nM | [dW][dW][dL][dK][dL][dR][dW][dW] [wwlklrww (PEPTIDE ID NO: 81)]
61 | 890 nM | [dR][dK][dI][dR][dI][dH][dY][dH] [rkirihyh (PEPTIDE ID NO: 227)]
